From patent US12545899B2, “Luciferase enzymes for use with thermostable luciferins in bioluminescent assays” (Promega Corporation, priority 2018, dated 2026)

What was measured:
[1] = Differential scanning fluorimetry (DSF) analysis; type: physicochemical; set-up: key to DSF Tm: melting temperature in °C (heated 30-95 °C at 1 °C/min); conditions: for DSF Tm: Table 7A; for DSF Tm (° C.): Table 9B
Experimental: To conduct the experiment, Sypro Orange (5000×) was diluted in water to 3× and combined with enzymes stored in 50 mM HEPES pH 7.5, 100 mM NaCl, 2 mM EDTA to a final concentration of 5×. Fluorescence was read at 60 second intervals as the reactions were heated at 1° C. per minute from 30-95° C. The change in fluorescence at each minute was calculated and plotted for each temperature in the range.
The luciferase enzyme variants generated were also evaluated using DSF analysis as shown in the representative results provided in Tables 7A and 7B above. To conduct the experiments, Sypro Orange (5000×) was diluted in water to 3× and combined with enzymes stored in 20 mM HEPES pH 7.5, 200 mM NaCl, 1 mM EDTA to a final concentration of 5×. Fluorescence was read at 60 second intervals as the reactions were heated at 1° C. per minute from 30-95° C. The change in fluorescence at each minute was calculated and plotted for each temperature in the range.

[2] = Brightness of additional luciferase enzyme variants with CS0333; type: biochemical; conditions: Table 7A, 1 mM CS0333; for Fold-improvement over ATG3707, CS0333 BG: Bright-Glo buffer; for Fold-improvement over ATG3707, CS0333 DR: Detection Reagent buffer
Experimental: (§1) Additional luciferase enzyme variants were generated and evaluated for their stability and activity. To evaluate the additional luciferase enzyme variants, 0.005 mg/ml luciferase enzyme variant was mixed with 1 mM ATP+1 mM substrate in either Bright-Glo™ (BG) or Detection Reagent (DR) buffers. […] (Table 7A is colored according to their relative luminescence values within each column across a red to green color spectrum with the lowest values colored red and the highest values colored green.)

[3] = Brightness of additional luciferase enzyme variants with CS0280; type: biochemical; conditions: Table 7A, 1 mM CS0280; for Fold-improvement over ATG3707, CS0280 BG: Bright-Glo buffer; for Fold-improvement over ATG3707, CS0280 DR: Detection Reagent buffer
Experimental: as §1

Row | Molecule | transition melting temperature by DSF ([1]; compared with Ppe variant (SEQ ID NO: 1), FIG. 29) | Fold-improvement over ATG3707, CS0333 BG [2] | Fold-improvement over ATG3707, CS0333 DR [2] | Fold-improvement over ATG3707, CS0280 BG [3] | Fold-improvement over ATG3707, CS0280 DR [3] | DSF Tm [1] | DSF Tm (° C.) [1]
1 | ATG-2877: SEQ ID NO: 5; H244W (protein) MADKNILYGPEPFYPLEDGTAGEQMFDALSRYAAIPGCIALTNAHTKENVLYEEFLKLSCRLAESFKKYGLKQNDTIAVCSENSLQFFLPVIASLYLGIIVAPVNDKYIERELIHSLGIVKPRIVFCSKNTFQKVLNVKSKLKSIETIIILDLNEDLGGYQCLNNFISQNSDSNLDVKKFKPYSFNRDDQVASIMFSSGTTGLPKGVMLTHKNIVARFSIAKDPTFGNAINPTSAILTVIPFHWGFGMMTTLGYFTCGFRVVLMHTFEEKLFLQSLQDYKVESTLLVPTLMAFLAKSALVEKYDLSHLKEIASGGAPLSKEIGEMVKKRFKLNFVRQGYGLTETTSAVLITPKGDAKPGSTGKIVPLHAVKVVDPTTGKILGPNEPGELYFKGPMIMKGYYNNEEATKAIIDNDGWLRSGDIAYYDNDGHFYIVDRLKSLIKYKGYQVAPAEIEGILLQHPYIVDAGVTGIPDEAAGELPAAGVVVQTGKYLNEQIVQDYVASQVSTAKWLRGGVKFLDEIPKGSTGKIDRKVLRQMLEKHTNGHHHHHHHH | does not alter the transition melting temperature | – | – | – | – | – | –
2 | C7579E3: SEQ ID NO: 71; H244W+T344A+I396K+S193A+N228D+L305F+S306P+I109V+Y339M (protein) MADKNILYGPEPFYPLEDGTAGEQMFDALSRYAAIPGCIALTNAHTKENVLYEEFLKLSCRLAESFKKYGLKQNDTIAVCSENSLQFFLPVIASLYLGIIVAPVNDKYIERELIHSLGIVKPRIVFCSKNTFQKVLNVKSKLKSIETIIILDLNEDLGGYQCLNNFISQNSDSNLDVKKFKPYSFNRDDQVASIMFSSGTTGLPKGVMLTHKNIVARFSIAKDPTFGNAINPTSAILTVIPFHHGFGMMTTLGYFTCGFRVVLMHTFEEKLFLQSLQDYKVESTLLVPTLMAFLAKSALVEKYDLPHLKEIASGGAPLSKEIGEMVKKRFKLNFVRQGYGLTETTSAVLITPKGDAKPGSTGKIVPLHAVKVVDPTTGKILGPNEPGELYFKGPMIMKGYYNNEEATKAIIDNDGWLRSGDIAYYDNDGHFYIVDRLKSLIKYKGYQVAPAEIEGILLQHPYIVDAGVTGIPDEAAGELPAAGVVVQTGKYLNEQIVQDYVASQVSTAKWLRGGVKFLDEIPKGSTGKIDRKVLRQMLEKHTNGHHHHHHHH | – | 1.19 | 1.96 | 3.26 | 3.63 | 55 | –
3 | C7612E10: SEQ ID NO: 68; H244W+T344A+I396K+S193A+N228D+L305F+S306P+I109V+V348I (protein) MADKNILYGPEPFYPLEDGTAGEQMFDALSRYAAIPGCIALTNAHTKENVLYEEFLKLSCRLAESFKKYGLKQNDTIAVCSENSLQFFLPVIASLYLGIIVAPVNDKYVERELIHSLGIVKPRIVFCSKNTFQKVLNVKSKLKSIETIIILDLNEDLGGYQCLNNFISQNSDSNLDVKKFKPYSFNRDDQVASIMFSSGTTGLPKGVMLTHKNIVARFSIAKDPTFGNAINPTSAILTVIPFHHGFGMMTTLGYFTCGFRVVLMHTFEEKLFLQSLQDYKVESTLLVPTLMAFLAKSALVEKYDLSHLKEIASGGAPLSKEIGEMVKKRFKLNFVRQGYGLTETTSAVLITPKGDAKPGSTGKIVPLHAVKVVDPTTGKILGPNEPGELYFKGPMIMKGYYNNEEATKAIIDNDGWLRSGDIAYYDNDGHFYIVDRLKSLIKYKGYQVAPAEIEGILLQHPYIVDAGVTGIPDEAAGELPAAGVVVQTGKYLNEQIVQDYVASQVSTAKWLRGGVKFLDEIPKGSTGKIDRKVLRQMLEKHTNGHHHHHHHH | – | 2.28 | 2.27 | 2.22 | 2.02 | 63 | –
4 | C7573G10: SEQ ID NO: 69; H244W+T344A+I396K+S193A+N228D+L305F+S306P+I109V+A316M (protein) MADKNILYGPEPFYPLEDGTAGEQMFDALSRYAAIPGCIALTNAHTKENVLYEEFLKLSCRLAESFKKYGLKQNDTIAVCSENSLQFFLPVIASLYLGIIVAPVNDKYIERELIHSLGIVKPRIVFCSKNTFQKVLNVKSKLKSIETIIILDLNEDLGGYQCLNNFISQNSDSNLDVKKFKPYSFNRDDQVAAIMFSSGTTGLPKGVMLTHKNIVARFSIAKDPTFGNAINPTSAILTVIPFHHGFGMMTTLGYFTCGFRVVLMHTFEEKLFLQSLQDYKVESTLLVPTLMAFLAKSALVEKYDLSHLKEIASGGAPLSKEIGEMVKKRFKLNFVRQGYGLTETTSAVLITPKGDAKPGSTGKIVPLHAVKVVDPTTGKILGPNEPGELYFKGPMIMKGYYNNEEATKAIIDNDGWLRSGDIAYYDNDGHFYIVDRLKSLIKYKGYQVAPAEIEGILLQHPYIVDAGVTGIPDEAAGELPAAGVVVQTGKYLNEQIVQDYVASQVSTAKWLRGGVKFLDEIPKGSTGKIDRKVLRQMLEKHTNGHHHHHHHH | – | 2.81 | 2.09 | 14.12 | 19.49 | 62 | –
5 | C7584F2: SEQ ID NO: 73; H244W+T344A+I396K+S193A+N228D+L305F+S306P+I109V+A344I (protein) MADKNILYGPEPFYPLEDGTAGEQMFDALSRYAAIPGCIALTNAHTKENVLYEEFLKLSCRLAESFKKYGLKQNDTIAVCSENSLQFFLPVIASLYLGIIVAPVNDKYIERELIHSLGIVKPRIVFCSKNTFQKVLNVKSKLKSIETIIILDLNEDLGGYQCLNNFISQNSDSNLDVKKFKPYSFNRDDQVASIMFSSGTTGLPKGVMLTHKNIVARFSIAKDPTFGNAINPTSAILTVIPFHHGFGMMTTLGYFTCGFRVVLMHTFEEKLFLQSLQDYKVESTLLVPTLMAFLAKSALVEKYDLSHLKEIASGGAPLSKEIGEMVKKRFKLNFVRQGYGLTEATSAVLITPKGDAKPGSTGKIVPLHAVKVVDPTTGKILGPNEPGELYFKGPMIMKGYYNNEEATKAIIDNDGWLRSGDIAYYDNDGHFYIVDRLKSLIKYKGYQVAPAEIEGILLQHPYIVDAGVTGIPDEAAGELPAAGVVVQTGKYLNEQIVQDYVASQVSTAKWLRGGVKFLDEIPKGSTGKIDRKVLRQMLEKHTNGHHHHHHHH | – | 2.35 | 2.15 | 2.78 | 2.68 | 65 | –
6 | MK0136: SEQ ID NO: 104; H244W+S193A+N228D+L305F+S306P+I109V+C38R+F55I+Y108F+A316W+Y339M (protein) MADKNILYGPEPFYPLEDGTAGEQMFDALSRYAAIPGRIALTNAHTKENVLYEEILKLSCRLAESFKKYGLKQNDTIAVCSENSLQFFLPVIASLYLGIIVAPVNDKFVERELIHSLGIVKPRIVFCSKNTFQKVLNVKSKLKSIETIIILDLNEDLGGYQCLNNFISQNSDSNLDVKKFKPYSFNRDDQVAAIMFSSGTTGLPKGVMLTHKNIVARFSIAKDPTFGDAINPTSAILTVIPFHWGFGMMTTLGYFTCGFRVVLMHTFEEKLFLQSLQDYKVESTLLVPTLMAFLAKSALVEKYDFPHLKEIASGGWPLSKEIGEMVKKRFKLNFVRQGMGLSETTSAILITPKGDAKPGSTGKIVPLHAVKVVDPTTGKILGPNEPGELYFKGPMIMKGYYNNEEATKAIIDNDGWLRSGDIAYYDNDGHFYIVDRLKSLIKYKGYQVAPAEIEGILLQHPYIVDAGVTGIPDEAAGELPAAGVVVQTGKYLNEQIVQDYVASQVSTAKWLRGGVKFLDEIPKGSTGKIDRKVLRQMLEKHTNGHHHHHHHH | – | – | – | – | – | – | 71 °C
7 | MK0138: SEQ ID NO: 106; H244W+S193A+N228D+L305F+S306P+I109V+C38R+F55I+Y108F+A316W+Y339M+T3441+I396K (protein) MADKNILYGPEPFYPLEDGTAGEQMFDALSRYAAIPGRIALTNAHTKENVLYEEILKLSCRLAESFKKYGLKQNDTIAVCSENSLQFFLPVIASLYLGIIVAPVNDKYVERELIHSLGIVQPRIVFCSKNTFQKVLNVKSKLKSIETIIILDLNEDLGGYQCLNNFISQNSDSNLDVKKFKPYSFNRDDQVAAIMFSSGTTGLPKGVMLTHKNIVARFSIAKDPTFGDAINPTSAILTVIPFHWGFGMMTTLGYFTCGFRVVLMHTFEEKLFLQSLQDYKVESTLLVPTLMAFLAKSALVEKYDFPHLKEIASGGWPLSKEIGEMVKKRFKLNFVRQGMGLTEITSAILITPKGDAKPGSTGKIVPLHAVKVVDPTTGKILGPNEPGELYFKGPMKMKGYYNNEEATKAIIDNDGWLRSGDIAYYDNDGHFYIVDRLKSLIKYKGYQVAPAEIEGILLQHPYIVDAGVTGIPDEAAGELPAAGVVVQTGKYLNEQIVQDYVASQVSTAKWLRGGVKFLDEIPKGSTGKIDRKVLRQMLEKHTNGHHHHHHHH | – | – | – | – | – | – | 58 °C
